Source: patent US20240197738A1 (UNIVERSITY OF NORTH CAROLINA AT CHAPEL HILL, published 2024)

Legend:
CUL3-E358Q = molecular target: T1, CUL3-E358Q (UniProt Q13618 1-768); test: binding assay in cells; method not described
T1 construct: also called E358Q-CUL3

CUL3 (wild type) = molecular target: T2, CUL3 (wild type) (UniProt Q13618 1-768); test: binding assay in cells; method not described
T2 construct: also called WT-CUL3; cullin 3

EWSR1 (wild type) = molecular target: T3, EWSR1 (wild type) (UniProt Q01844 1-656, limits assumed); test: binding assay in cells; method not described, data not shown
T3 construct: also called EWSR1-WT; HA-EWSR1
T3 sequence (looked up): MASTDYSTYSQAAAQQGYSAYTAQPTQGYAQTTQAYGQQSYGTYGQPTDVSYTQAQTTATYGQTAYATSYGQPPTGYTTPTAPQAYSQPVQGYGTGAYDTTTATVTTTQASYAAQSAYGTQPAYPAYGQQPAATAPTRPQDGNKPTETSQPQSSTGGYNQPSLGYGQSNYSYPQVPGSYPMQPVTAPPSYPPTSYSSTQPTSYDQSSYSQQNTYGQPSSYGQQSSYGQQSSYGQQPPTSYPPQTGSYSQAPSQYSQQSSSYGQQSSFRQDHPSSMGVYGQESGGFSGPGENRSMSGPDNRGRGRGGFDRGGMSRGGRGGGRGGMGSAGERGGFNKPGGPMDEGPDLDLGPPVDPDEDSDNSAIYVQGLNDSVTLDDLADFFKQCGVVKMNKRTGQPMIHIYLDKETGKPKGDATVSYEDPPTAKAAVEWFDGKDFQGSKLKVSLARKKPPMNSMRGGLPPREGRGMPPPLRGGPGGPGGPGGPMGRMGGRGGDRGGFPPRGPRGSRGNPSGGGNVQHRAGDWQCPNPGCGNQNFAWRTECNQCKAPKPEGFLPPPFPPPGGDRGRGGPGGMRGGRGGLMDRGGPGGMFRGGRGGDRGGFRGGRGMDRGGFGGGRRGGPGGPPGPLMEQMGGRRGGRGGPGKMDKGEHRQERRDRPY

T1 sequence (Q13618 whole entry E358Q): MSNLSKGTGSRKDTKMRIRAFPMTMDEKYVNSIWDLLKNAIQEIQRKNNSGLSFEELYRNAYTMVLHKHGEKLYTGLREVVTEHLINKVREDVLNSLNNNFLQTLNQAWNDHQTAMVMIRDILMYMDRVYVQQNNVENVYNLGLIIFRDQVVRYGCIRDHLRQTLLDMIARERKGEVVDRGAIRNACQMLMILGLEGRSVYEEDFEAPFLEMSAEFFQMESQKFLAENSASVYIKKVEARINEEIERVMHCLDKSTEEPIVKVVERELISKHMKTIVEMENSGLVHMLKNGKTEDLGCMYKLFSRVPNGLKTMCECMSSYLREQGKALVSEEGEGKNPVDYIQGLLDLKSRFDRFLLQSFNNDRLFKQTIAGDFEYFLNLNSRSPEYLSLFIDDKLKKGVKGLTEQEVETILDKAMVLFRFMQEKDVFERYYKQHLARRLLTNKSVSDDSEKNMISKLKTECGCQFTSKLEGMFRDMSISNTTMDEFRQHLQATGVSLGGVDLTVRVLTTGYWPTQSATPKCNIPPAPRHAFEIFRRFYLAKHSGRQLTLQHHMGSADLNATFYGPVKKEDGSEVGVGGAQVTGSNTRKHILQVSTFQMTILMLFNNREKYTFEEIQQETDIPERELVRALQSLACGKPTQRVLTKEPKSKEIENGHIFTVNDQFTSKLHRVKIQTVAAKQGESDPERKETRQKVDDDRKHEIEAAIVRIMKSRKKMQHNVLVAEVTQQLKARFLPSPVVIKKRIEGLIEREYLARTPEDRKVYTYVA
T2 sequence (Q13618 whole entry): as the sequence (Q13618 whole entry E358Q) above, with Q358E counted along it

B1: SPOP (other, human, UniProt O43791 1-374, looked up)
chain: MSRVPSPPPPAEMSSGPVAESWCYTQIKVVKFSYMWTINNFSFCREEMGEVIKSSTFSSGANDKLKWCLRVNPKGLDEESKDYLSLYLLLVSCPKSEVRAKFKFSILNAKGEETKAMESQRAYRFVQGKDWGFKKFIRRDFLLDEANGLLPDDKLTLFCEVSVVQDSVNISGQNTMNMVKVPECRLADELGGLWENSRFTDCCLCVAGQEFQAHKAILAARSPVFSAMFEHEMEESKKNRVEINDVEPEVFKEMMCFIYTGKAPNLDKMADDLLAAADKYALERLKVMCEDALCSNLSVENAAEILILADLHSADQLKTQAVDFINYHASDVLETSGWKSMVVSHPHLVAEAYRSLASAQCPFLGPPRKRLKQS
notes: Exogenous SPOP carried a GST, Flag or HA tag; endogenous SPOP was also used; also called GST-SPOP; Flag-SPOP
- binding result (CUL3-E358Q): binds
- binding result (CUL3 (wild type)): binds
- binding result (EWSR1 (wild type)): no binding
